According to patent publication US20200276130A1 (WISCONSIN ALUMNI RESEARCH FOUNDATION, published 2020):

What was measured:
[1] = target: T1, GST-CARM1 fusion protein (glutathione S-transferase tagged co-activator associated arginine methyltransferase … (UniProt Q86X55 1-608)); assay: in vitro interaction assay, in vitro translated Flag-PKM2 truncation with GST-CARM1
T1 construct: Expressed in E. coli BL-21, purified on glutathione sepharose; also called GST tagged CARM1; not shown: glutathione S-transferase (GST) tag
T1 sequence (looked up): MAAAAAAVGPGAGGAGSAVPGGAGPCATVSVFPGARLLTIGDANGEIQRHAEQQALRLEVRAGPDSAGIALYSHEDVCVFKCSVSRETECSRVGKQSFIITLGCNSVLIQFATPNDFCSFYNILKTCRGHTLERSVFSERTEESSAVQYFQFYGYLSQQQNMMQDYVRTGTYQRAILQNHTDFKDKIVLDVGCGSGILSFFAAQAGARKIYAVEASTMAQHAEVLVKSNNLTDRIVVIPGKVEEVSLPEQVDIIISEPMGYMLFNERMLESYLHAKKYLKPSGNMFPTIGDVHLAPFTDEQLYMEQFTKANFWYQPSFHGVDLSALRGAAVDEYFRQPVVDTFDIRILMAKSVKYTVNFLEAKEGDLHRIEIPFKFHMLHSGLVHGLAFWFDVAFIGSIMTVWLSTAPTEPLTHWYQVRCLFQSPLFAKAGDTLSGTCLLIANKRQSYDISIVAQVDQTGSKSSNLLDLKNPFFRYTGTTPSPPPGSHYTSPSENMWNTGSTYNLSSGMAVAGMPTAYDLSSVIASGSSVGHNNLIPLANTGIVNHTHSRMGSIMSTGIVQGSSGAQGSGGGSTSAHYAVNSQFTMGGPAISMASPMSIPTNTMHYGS
Method: Flag-tagged full length PKM2 and its truncations constructs were translated by T7 Quick Coupled Translation/Transcription system (Promega). […] The beads were washed 4 times with binding buffer, and recombinant proteins were eluted with 500 μg/ml 3× Flag peptides. Samples were analyzed by SDS-PAGE and Western blotting.

[2] = target: T2, endogenous HSPA9 (human, UniProt P38646 47-679); assay: anti-Flag co-immunoprecipitation from MCF7 cell lysates, Western blot
T2 construct: Endogenous protein co-precipitated from cell lysate
T2 sequence (P38646 47-679 limits assumed): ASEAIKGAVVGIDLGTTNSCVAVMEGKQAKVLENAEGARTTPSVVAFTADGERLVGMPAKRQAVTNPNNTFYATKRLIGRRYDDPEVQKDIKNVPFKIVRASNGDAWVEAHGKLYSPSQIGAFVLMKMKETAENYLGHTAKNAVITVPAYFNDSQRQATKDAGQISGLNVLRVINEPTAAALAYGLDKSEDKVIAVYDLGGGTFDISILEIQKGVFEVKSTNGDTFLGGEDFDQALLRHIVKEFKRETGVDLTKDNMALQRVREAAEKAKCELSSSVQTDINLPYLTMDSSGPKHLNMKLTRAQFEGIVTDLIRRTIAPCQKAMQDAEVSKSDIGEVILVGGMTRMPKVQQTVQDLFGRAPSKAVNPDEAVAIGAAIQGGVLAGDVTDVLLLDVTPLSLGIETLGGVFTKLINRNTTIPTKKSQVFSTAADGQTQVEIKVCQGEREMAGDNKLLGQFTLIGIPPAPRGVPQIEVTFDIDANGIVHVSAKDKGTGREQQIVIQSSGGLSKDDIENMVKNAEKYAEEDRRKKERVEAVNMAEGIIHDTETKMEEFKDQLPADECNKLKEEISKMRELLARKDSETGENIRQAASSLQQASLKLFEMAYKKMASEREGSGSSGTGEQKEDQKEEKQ

[3] = target: T3, endogenous IP3R3 (inositol 1,4,5-trisphosphate receptor 3) (human, UniProt Q14573 1-2671); assay: anti-Flag M2 resin immunoprecipitation from MCF7 cells, Western blot
T3 construct: Endogenous protein co-precipitated from cell lysate; also called ITPR3
T3 sequence (Q14573 whole entry): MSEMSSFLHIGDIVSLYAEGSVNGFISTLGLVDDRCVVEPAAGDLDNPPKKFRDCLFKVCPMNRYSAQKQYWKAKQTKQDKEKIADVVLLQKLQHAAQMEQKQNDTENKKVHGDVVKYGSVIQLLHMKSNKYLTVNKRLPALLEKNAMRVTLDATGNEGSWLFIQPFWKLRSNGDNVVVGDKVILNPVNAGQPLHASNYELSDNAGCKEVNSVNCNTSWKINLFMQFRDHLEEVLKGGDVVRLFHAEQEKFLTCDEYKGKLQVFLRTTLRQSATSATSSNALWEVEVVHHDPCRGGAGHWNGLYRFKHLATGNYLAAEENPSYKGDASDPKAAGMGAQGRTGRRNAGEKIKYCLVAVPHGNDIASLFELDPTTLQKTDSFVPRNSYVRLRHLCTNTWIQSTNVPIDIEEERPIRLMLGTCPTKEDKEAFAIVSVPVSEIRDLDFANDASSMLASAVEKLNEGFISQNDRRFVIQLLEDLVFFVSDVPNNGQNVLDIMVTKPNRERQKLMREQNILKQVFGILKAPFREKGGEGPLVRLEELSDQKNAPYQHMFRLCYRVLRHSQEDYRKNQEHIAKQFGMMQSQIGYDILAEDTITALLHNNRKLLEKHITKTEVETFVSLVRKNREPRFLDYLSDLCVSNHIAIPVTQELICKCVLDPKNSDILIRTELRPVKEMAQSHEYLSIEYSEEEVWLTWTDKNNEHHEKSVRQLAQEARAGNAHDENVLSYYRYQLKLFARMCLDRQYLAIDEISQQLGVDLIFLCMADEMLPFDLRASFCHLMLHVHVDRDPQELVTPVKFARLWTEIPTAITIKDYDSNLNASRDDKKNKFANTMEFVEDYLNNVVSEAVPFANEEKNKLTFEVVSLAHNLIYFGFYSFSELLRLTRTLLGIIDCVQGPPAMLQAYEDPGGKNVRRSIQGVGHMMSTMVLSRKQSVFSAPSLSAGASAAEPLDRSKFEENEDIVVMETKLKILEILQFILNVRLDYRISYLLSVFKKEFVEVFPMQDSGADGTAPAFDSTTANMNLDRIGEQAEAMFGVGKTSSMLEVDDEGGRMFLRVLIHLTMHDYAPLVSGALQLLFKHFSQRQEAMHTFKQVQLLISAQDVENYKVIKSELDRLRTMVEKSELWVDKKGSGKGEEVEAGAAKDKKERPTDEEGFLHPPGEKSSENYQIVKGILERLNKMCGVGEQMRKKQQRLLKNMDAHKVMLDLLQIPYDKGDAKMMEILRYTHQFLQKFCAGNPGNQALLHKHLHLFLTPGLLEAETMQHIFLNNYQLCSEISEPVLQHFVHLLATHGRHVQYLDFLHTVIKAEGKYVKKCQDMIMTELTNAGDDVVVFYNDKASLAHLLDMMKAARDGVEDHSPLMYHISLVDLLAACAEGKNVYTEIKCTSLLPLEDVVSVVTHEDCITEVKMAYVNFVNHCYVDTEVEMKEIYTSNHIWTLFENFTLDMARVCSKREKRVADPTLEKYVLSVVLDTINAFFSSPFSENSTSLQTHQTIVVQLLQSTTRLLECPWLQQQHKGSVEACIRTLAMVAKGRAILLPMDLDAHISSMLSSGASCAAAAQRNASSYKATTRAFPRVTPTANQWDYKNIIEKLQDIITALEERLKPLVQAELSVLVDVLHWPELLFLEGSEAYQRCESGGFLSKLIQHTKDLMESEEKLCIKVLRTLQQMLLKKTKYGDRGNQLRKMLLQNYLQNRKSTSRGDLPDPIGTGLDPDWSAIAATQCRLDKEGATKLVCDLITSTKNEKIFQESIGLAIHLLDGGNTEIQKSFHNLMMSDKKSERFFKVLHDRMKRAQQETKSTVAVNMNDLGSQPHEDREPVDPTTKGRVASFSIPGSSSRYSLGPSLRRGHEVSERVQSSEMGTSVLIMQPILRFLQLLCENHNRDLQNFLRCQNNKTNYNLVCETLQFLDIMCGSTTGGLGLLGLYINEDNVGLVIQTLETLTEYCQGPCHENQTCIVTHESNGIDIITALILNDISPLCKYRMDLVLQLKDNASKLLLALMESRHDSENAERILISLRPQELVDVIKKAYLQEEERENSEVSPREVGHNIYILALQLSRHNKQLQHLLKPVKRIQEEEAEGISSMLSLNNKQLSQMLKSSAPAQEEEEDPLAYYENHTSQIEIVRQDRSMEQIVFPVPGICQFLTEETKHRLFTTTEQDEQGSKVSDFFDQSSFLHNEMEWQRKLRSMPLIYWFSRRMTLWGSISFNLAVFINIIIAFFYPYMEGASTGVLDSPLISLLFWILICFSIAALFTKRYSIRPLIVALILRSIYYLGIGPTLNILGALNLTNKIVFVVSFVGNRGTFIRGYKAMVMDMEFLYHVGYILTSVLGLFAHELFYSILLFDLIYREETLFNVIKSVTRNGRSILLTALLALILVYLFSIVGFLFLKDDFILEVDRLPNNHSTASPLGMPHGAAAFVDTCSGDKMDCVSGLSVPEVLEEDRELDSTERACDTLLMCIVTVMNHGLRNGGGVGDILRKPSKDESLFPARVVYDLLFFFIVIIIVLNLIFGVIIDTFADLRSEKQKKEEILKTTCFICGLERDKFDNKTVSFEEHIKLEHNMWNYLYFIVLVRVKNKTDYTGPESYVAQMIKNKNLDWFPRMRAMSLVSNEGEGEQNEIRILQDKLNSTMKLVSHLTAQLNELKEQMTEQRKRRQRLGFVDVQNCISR

[4] = target: T4, endogenous IP3R1 (inositol 1,4,5-trisphosphate receptor 1) (human, UniProt Q14643 1-2758, limits assumed); assay: as above
T4 construct: Endogenous protein co-precipitated from cell lysate; also called ITPR1

B1: truncated Flag-PKM2 with truncation of both the C domain and the N/A1 domain (enzyme)
chain: not shown
notes: In vitro translated; also called 48 (as printed, probably delta-8); not shown: Flag tag
Question: Does B1 bind [1]?
Answer: no binding

B2: Flag-tagged PKM1 (pyruvate kinase M1) (enzyme)
chain: not shown
notes: Purified recombinant protein in the GST pull-down; expressed in MCF7 or HEK293T PKM2 KO cells in the co-immunoprecipitations; also called Flag-PKM1; recombinant PKM1; not shown: Flag tag
Question: Does B2 bind [2]?
Answer: no binding

B3: Flag-tagged PKM2^mut (R445K, R447K and R455K), methylation-defective PKM2 (enzyme)
chain: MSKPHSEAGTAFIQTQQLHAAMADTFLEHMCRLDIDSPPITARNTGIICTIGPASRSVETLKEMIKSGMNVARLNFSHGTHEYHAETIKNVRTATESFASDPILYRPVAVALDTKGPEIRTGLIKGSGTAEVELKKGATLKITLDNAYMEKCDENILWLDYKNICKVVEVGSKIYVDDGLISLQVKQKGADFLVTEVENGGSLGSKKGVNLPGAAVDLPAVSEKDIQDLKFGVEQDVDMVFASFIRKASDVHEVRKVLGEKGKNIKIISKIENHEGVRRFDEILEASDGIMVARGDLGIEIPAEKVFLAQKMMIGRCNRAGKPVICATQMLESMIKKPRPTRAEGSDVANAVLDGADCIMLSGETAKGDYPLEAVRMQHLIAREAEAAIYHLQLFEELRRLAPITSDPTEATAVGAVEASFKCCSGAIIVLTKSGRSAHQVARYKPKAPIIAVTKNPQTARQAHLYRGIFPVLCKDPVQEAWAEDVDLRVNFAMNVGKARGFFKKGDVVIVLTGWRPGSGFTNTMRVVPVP
notes: Stably expressed in MCF7 (and MDA-MB-231) PKM2 KO cells; precipitated with anti-Flag M2 resin; also called PKM2 R445/447/455K; not shown: left out
Question: Does B3 bind [3]?
Answer: no binding

Question: Does B3 bind [4]?
Answer: no binding
